The source of these data is US20120277144A1 (published 2012).

In the experiment the target is Rac1 (human, UniProt P63000 1-189). Description: co-immunoprecipitation with anti-FGD5 antibody from lysates of FGD5 overexpressing HUVECs, western blot. As to the method: GTP-RhoA, Rac1, and cdc42 activation levels were measured using the G-lisa detection system (Tebu-Bio, The Netherlands). For FGD5-protein complex co-immunoprecipitation, magnetic beads (Dynabeads, Invitrogen, The Netherlands) were coated and cross-linked with 2.5 μg anti-FGD5 antibody (Bioscience, The Netherlands) before immunoprecipitation overnight at 4° C. with protein cell lysates of transfected HUVECs (50 μg total protein of a volume of 100 μl incubation buffer). Beads were washed and the protein samples were eluted with eluation buffer (Invitrogen, The Netherlands) before analysis by western blot.
On the technique in general: A western blot detects proteins with antibodies after separation by electrophoresis.

B1: FYVE, RhoGEF and PH domain-containing 5 (FGD5) (enzyme)
chain: MFRGPKPPIAPKPRLTAPNEWRASVYLNDSLNKCSNGRLPCVDRGLDEGPRSIPKCSESETDEDYIVVPRVPLREDEPKDEGSVGNKALVSPESSAEEEEEREEGGEACGLEGTGAGEDSVAPAAPGAGALSREGEEGTDLALEDEGEGCADEPGTLEQVSRSEEEEKLVQPHRECSLEDSGPWAGEGVFQSDLLLPHIHGEDQEPPDTPGEAEEDDEEGCASTDPAGADEGSGPDRPTEDMGQDAEDTSEEPPEKEELAGVQEAETATDCPEVLEEGCEEATGVTGGEQVDLSEPPDHEKKTNQEVAAATLEDHAQDESAEESCQIVPFENDCMEDFVTSLTGSPYEFFPTESTSFCSESCSPLSESAKGLESEQAPKLGLRAEENPMVGALCGQCGSLQGGAAEGPAAPDVVVVLEEEALDDALANPYVMGVGLPGQAAPGEGGQAASDALGGYGSKEELNCEAEGGLVPADRKNTSTRVRPHSGKVAGYVPETVPEETGPEAGSSAPGIGGAAEEVGKTLLSLEGKPLEASRALPAKPRAFTLYPRSFSVEGREIPVSVYQEPEGSGLDDHRIKRKEDNLSLSCVIGSSGSFSQRNHLPSSGTSTPSSMVDIPPPFDLACITKKPITKSSPSLLIESDSPDKYKKKKSSFKRFLALTFKKKTENKLHVDVNVSSSRSSSESSYHGPSRILEVDRRSLSNSPQLKSRTGKLRASESPSSLIFYRDGKRKGVPFSRTVSRVESFEDRSRPPFLPLPLTKPRSISFPSADTSDYENIPAMNSDYENIQIPPRRPARAGAFTKLFEDQSRALSTANENDGYVDMSSFNAFESKQQSADQDAESAYTEPYKVCPISSAAPKEDLTSDEEQRSSEEEDSASRDPSVTHKVEGQSRALVIAQELLSSEKAYVEMLQHLNLDFHGAVMRALDDMDHEGRDTLAREELRQGLSELPAIHDLHQGILEELEERLSNWESQQKVADVFLAREQGFDHHATHILQFDRYLGLLSENCLHSPRLAAAVREFEQSVQGGSQTAKHRLLRVVQRLFQYQVLLTDYLNNLCPDSAEYDNTQGALSLISKVTDRANDSMEQGENLQKLVHIEHSVRGQGDLLQPGREFLKEGTLMKVTGKNRRPRHLFLMNDVLLYTYPQKDGKYRLKNTLAVANMKVSRPVMEKVPYALKIETSESCLMLSASSCAERDEWYGCLSRALPEDYKAQALAAFHHSVEIRERLGVSLGERPPTLVPVTHVMMCMNCGCDFSLTLRRHHCHACGKIVCRNCSRNKYPLKYLKDRMAKVCDGCFGELKKRGRAVPGLMRERPVSMSFPLSSPRFSGSAFSSVFQSINPSTFKKQKKVPSALTEVAASGEGSAISGYLSRCKRGKRHWKKLWFVIKGKVLYTYMASEDKVALESMPLLGFTIAPEKEEGSSEVGPIFHLYHKKTLFYSFKAEDTNSAQRWIEAMEDASVL
notes: Guanine-nucleotide exchange factor; The co-IP used lysates of HUVECs transfected with adenovirus encoding human FGD5 cDNA; also called Ad-FGD5 transgene product
Consider B1, for which the binding result was “no binding”.
